Test results reported in the supplement of paper PMC6757056.
± gives the standard deviation of the averaged measurements.

B1: library; a variant is named by its letters at N, in order (parent)
chain: GCUGUCACCGGUGCUUGGUACGUUAUAUUCAGCCGGUCUGAUGAGUCUNNNNNNAGACGAAACAGC

Key:
(6R,S)-folinic acid [1] = variants of: B1; test: FACS-Seq fitted mean relative fluorescence mCherry/BFP without ligand (log10 relative fluorescence); HEK293T overexpressing SLC46A1; higher = higher reporter protein expression; settings: without (6R,S)-folinic acid; ligand present: no
How it was run: (§1)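 Fluorescence figures are normalized fitted normal means of sequenced bin counts. Enriched, lentivirally transduced HEK293T libraries with a ribozyme-switch mCherry reporter and EF1α-BFP were held 48 h with or without ligand, then sorted into 6 mCherry/BFP bins. PCR-amplified, barcoded genomic DNA from each bin was sequenced on MiSeq. Means of log10(mCherry/BFP) were scaled to five spiked-in control ribozymes.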

(6R,S)-folinic acid [2] = variants of: B1; test: normalized RNA/DNA level without ligand (relative to sTRSVctl = 100) (log10 (% of sTRSVctl)); HEK293T overexpressing SLC46A1; higher = less ribozyme self-cleavage, higher mRNA level; settings: without (6R,S)-folinic acid; ligand present: no
Description: (§2)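 Hammerhead (sTRSV) ribozyme switch libraries with a ligand aptamer grafted on stem I and a randomized N4-6 loop II, cloned into the 3' UTR of mCherry and transiently transfected into HEK293T cells; RNA-Seq 72 h post transfection with ligand added 1 h before transfection; RNA read count / plasmid DNA read count normalized to the non-cleaving sTRSVctl (x100), log10; sequences with >100 DNA reads. FACS-Seq: lentiviral library sorted into 6 bins after 48 h ligand, log-normal fit mean of mCherry/BFP scaled to controls. Printed sequences are partial switch sequences.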

(6R,S)-folinic acid [3] = variants of: B1; test: FACS-Seq fitted mean relative fluorescence mCherry/BFP with ligand (log10 relative fluorescence); HEK293T overexpressing SLC46A1; ligand concentration (+) FACS-Seq: 6 mM; higher = higher reporter protein expression; settings: with (6R,S)-folinic acid; ligand present: yes
How it was run: as §1

(6R,S)-folinic acid [4] = variants of: B1; test: normalized RNA/DNA level with ligand (relative to sTRSVctl = 100) (log10 (% of sTRSVctl)); HEK293T overexpressing SLC46A1; ligand concentration (+) RNA-Seq: 6 mM; higher = less ribozyme self-cleavage, higher mRNA level; settings: with (6R,S)-folinic acid; ligand present: yes
Description: as §2

Variant	FACS-Seq fitted mean (log10) ((6R,S)-folinic acid [1])	normalized RNA/DNA level without ligand (log10) ((6R,S)-folinic acid [2])	FACS-Seq fitted mean (log10) ((6R,S)-folinic acid [3])	normalized RNA/DNA level with ligand (log10) ((6R,S)-folinic acid [4])
UCAGAU	0.523 ± 0.0091	1.95 ± 0.0075	0.201 ± 0.13	2.013 ± 0.011
UCCAGA	-0.0235 ± 0.25	2.01 ± 0.0079	0.123 ± 0.14	2 ± 0.029
UCCAGG	0.587 ± 0.23	1.976 ± 0.011	0.559 ± 0.28	2.01 ± 0.056
UCCAAG	0.322 ± 0.11	1.815 ± 0.0067	0.489 ± 0.12	1.992 ± 0.006
CCCCUG	0.237 ± 0.046	2.063 ± 0.0031	0.0558 ± 0.16	2.053 ± 0.0049
CCCCUA	0.532 ± 0.01	2.052 ± 0.0066	0.388 ± 0.34	2.06 ± 0.034
GCAGGG	0.107 ± 0.12	1.9807 ± 0.00024	0.128 ± 0.053	2.04 ± 0.036
GCAGGA	0.7 ± 0.19	1.972 ± 0.0072	0.642 ± 0.041	2.02 ± 0.023
CCACUU	0.0563 ± 0.03	1.97 ± 0.021	-0.0467 ± 0.18	1.972 ± 0.007
GCAGAU	0.24 ± 0.072	1.958 ± 0.011	0.319 ± 0.16	2.02 ± 0.035
GCCAAA	0.458 ± 0.071	2.02 ± 0.017	0.495 ± 0.12	2.029 ± 0.0061
ACAGGG	0.0799 ± 0.097	1.7 ± 0.032	0.604 ± 0.24	1.97 ± 0.029
ACAGGU	0.385 ± 0.057	1.909 ± 0.019	0.437 ± 0.1	1.97 ± 0.052
GCCAGC	0.269 ± 0.003	2.0142 ± 0.00072	0.102 ± 0.14	2.02 ± 0.038
GCCAGG	0.43 ± 0.14	1.982 ± 0.0037	0.666 ± 0.18	2.002 ± 0.015
GCCAGA	0.385 ± 0.028	2.019 ± 0.017	0.278 ± 0.36	2.03 ± 0.021
CCAGCC	0.159 ± 0.022	2.05 ± 0.025	-0.0156 ± 0.022	2.03 ± 0.039
GCAUUA	0.539 ± 0.07	1.995 ± 0.011	0.484 ± 0.1	2.03 ± 0.028
UCAUUG	0.0972 ± 0.14	1.876 ± 0.0017	0.304 ± 0.23	2 ± 0.05
CCAGUG	0.445 ± 0.16	2.029 ± 0.0086	0.251 ± 0.16	2.022 ± 0.0066
UCCGGG	0.446 ± 0.031	2.02 ± 0.026	0.62 ± 0.13	2.05 ± 0.031
CCCCGA	-0.3459 ± 0.0019	2.028 ± 0.0046	-0.64 ± 0.16	2.02 ± 0.038
GCCAUG	0.2783 ± 0.0012	1.982 ± 0.019	0.209 ± 0.15	2.01 ± 0.026
ACCAAA	0.632 ± 0.15	2.018 ± 0.012	0.52 ± 0.14	2.017 ± 0.011

Variant	FACS-Seq fitted mean (log10) ((6R,S)-folinic acid [1])	normalized RNA/DNA level without ligand (log10) ((6R,S)-folinic acid [2])	FACS-Seq fitted mean (log10) ((6R,S)-folinic acid [3])	normalized RNA/DNA level with ligand (log10) ((6R,S)-folinic acid [4])
UCAUAA	0.276 ± 0.048	1.935 ± 0.014	0.514 ± 0.034	1.96 ± 0.03
ACGAAA	0.141 ± 0.013	1.956 ± 0.0063	-0.0169 ± 0.14	2 ± 0.04
ACAUGG	0.326 ± 0.041	1.916 ± 0.0031	0.203 ± 0.12	2.04 ± 0.046
ACAUCC	0.096 ± 0.15	2.08 ± 0.018	0.0523 ± 0.006	2.03 ± 0.025
ACAUCA	0.659 ± 0.066	2.055 ± 0.0034	0.448 ± 0.075	2.05 ± 0.035
UCAUGC	0.558 ± 0.075	2.038 ± 0.01	0.485 ± 0.15	2.04 ± 0.031
UCCGAG	-0.0266 ± 0.13	1.809 ± 0.011	0.131 ± 0.18	1.9932 ± 0.0011
ACCGUU	0.123 ± 0.046	2.008 ± 0.016	-0.259 ± 0.15	2.01 ± 0.038
GCAUAA	0.2764 ± 0.00097	1.968 ± 0.011	0.171 ± 0.029	2 ± 0.027
GCAUAU	-0.109 ± 0.058	1.97 ± 0.029	-0.0866 ± 0.33	2 ± 0.045
GCAUAG	0.335 ± 0.0092	1.966 ± 0.017	0.466 ± 0.13	2.02 ± 0.053
CCCGGU	0.139 ± 0.18	2.023 ± 0.0033	0.0649 ± 0.052	2.02 ± 0.029
UCCUUG	0.0329 ± 0.028	1.85 ± 0.021	0.189 ± 0.026	1.99 ± 0.033
UCCGCG	0.277 ± 0.014	1.842 ± 0.0081	0.502 ± 0.16	1.96 ± 0.041
UCCACG	0.0965 ± 0.072	1.921 ± 0.0076	0.23 ± 0.091	2.01 ± 0.05
GCGAAC	0.252 ± 0.064	1.951 ± 0.002	0.261 ± 0.15	2.04 ± 0.027
GCGAAA	0.397 ± 0.13	1.977 ± 0.0092	0.39 ± 0.054	2.019 ± 0.017
ACCGAG	0.326 ± 0.018	1.893 ± 0.018	0.47 ± 0.072	2.01 ± 0.024
ACCGAA	0.0903 ± 0.11	2.013 ± 0.0085	-0.117 ± 0.18	2.03 ± 0.043
UCAGGA	0.149 ± 0.13	1.901 ± 0.011	-0.0151 ± 0.03	1.98 ± 0.032
UCAGGG	0.0969 ± 0.0033	1.81 ± 0.032	0.351 ± 0.2	1.99 ± 0.041
UCAGGU	0.531 ± 0.015	1.9204 ± 0.0013	0.603 ± 0.23	1.99 ± 0.024
ACAUAA	-0.288 ± 0.045	1.9664 ± 0.00019	-0.603 ± 0.1	1.996 ± 0.019
ACAUAC	0.125 ± 0.085	1.992 ± 0.0001	0.387 ± 0.078	1.99 ± 0.021

Variant	FACS-Seq fitted mean (log10) ((6R,S)-folinic acid [1])	normalized RNA/DNA level without ligand (log10) ((6R,S)-folinic acid [2])	FACS-Seq fitted mean (log10) ((6R,S)-folinic acid [3])	normalized RNA/DNA level with ligand (log10) ((6R,S)-folinic acid [4])
ACCUAU	0.349 ± 0.089	2.019 ± 0.018	0.644 ± 0.022	2.05 ± 0.033
ACCUAG	0.3338 ± 0.0029	1.956 ± 0.0051	0.37 ± 0.31	2.02 ± 0.03
GCAGCG	0.175 ± 0.0041	1.977 ± 0.016	0.0708 ± 0.18	2.03 ± 0.022
UCAGCG	0.14 ± 0.042	1.912 ± 0.0054	0.669 ± 0.098	2.03 ± 0.023
GCCUUA	0.12 ± 0.15	1.98 ± 0.027	-0.0974 ± 0.14	1.99 ± 0.037
CCCUUC	0.28 ± 0.13	2.141 ± 0.0043	0.0122 ± 0.3	2.05 ± 0.035
ACAGCA	0.531 ± 0.039	2.015 ± 0.012	0.555 ± 0.17	2.04 ± 0.037
ACAGCG	0.271 ± 0.031	1.82 ± 0.023	0.411 ± 0.034	2.01 ± 0.031
CCCUCA	0.596 ± 0.099	2.0625 ± 0.0014	0.512 ± 0.32	2.04 ± 0.038
CCACGU	0.714 ± 0.093	2.053 ± 0.0035	0.4025 ± 0.00094	2.0397 ± 0.0012
ACAGAG	0.511 ± 0.086	1.6069 ± 0.00022	0.928 ± 0.2	1.94 ± 0.048
ACAGAU	-0.89 ± 0.044	1.95 ± 0.0032	-0.82 ± 0.13	2.03 ± 0.04
ACAGAA	0.191 ± 0.02	1.947 ± 0.0015	0.0345 ± 0.24	2 ± 0.024
ACAGAC	0.355 ± 0.071	2.0094 ± 0.0017	0.356 ± 0.3	2.021 ± 0.0097
CCAUGU	0.369 ± 0.014	2.035 ± 0.018	0.222 ± 0.16	2.03 ± 0.04
UCAGUC	0.427 ± 0.2	2.083 ± 0.016	0.298 ± 0.2	2.013 ± 0.015
GCCGAG	0.418 ± 0.066	1.968 ± 0.005	0.538 ± 0.22	2.016 ± 0.02
GCCGAA	0.247 ± 0.078	2.011 ± 0.0054	0.486 ± 0.16	2.05 ± 0.022
CCAGAU	0.213 ± 0.0078	2.003 ± 0.0083	0.000255 ± 0.023	2.01 ± 0.027
GCAGUA	0.218 ± 0.051	1.98 ± 0.022	0.482 ± 0.12	2.02 ± 0.038
UCCGUG	0.0926 ± 0.016	1.78 ± 0.029	0.562 ± 0.067	1.98 ± 0.043
ACAGUG	0.32076 ± 2.8e-05	1.732 ± 0.0061	0.629 ± 0.16	2 ± 0.028
ACCCGA	0.249 ± 0.044	2.017 ± 0.016	0.537 ± 0.076	2.03 ± 0.044
GCAUGA	0.25 ± 0.038	2.0186 ± 0.00041	0.168 ± 0.097	2.081 ± 0.01
